Assays:
[1] = molecular target: HA glycoprotein of A/Chicken/Vietnam /NCVD-16/08 (H5N1, clade 7.1) (influenza A virus A/Chicken/Vietnam/NCVD-16/08 (H5N1))
[2] = molecular target: HA glycoprotein of A/goose/Shantou/1621/2005 (H5N1, clade 9) (influenza A virus A/goose/Shantou/1621/2005 (H5N1))
[3] = molecular target: HA glycoprotein of A/Chicken/Vietnam/NCVD-03/08 (H5N1, clade 7.1) (influenza A virus A/Chicken/Vietnam/NCVD-03/08 (H5N1))
[4] = molecular target: HA glycoprotein of A/Hong Kong/156/1997 (H5N1, clade 0) (influenza A virus A/Hong Kong/156/1997 (H5N1)) (UniProt O56140)
[5] = molecular target: HA glycoprotein of A/Indonesia/5/2005 (H5N1, clade 2.1.3.2) (influenza A virus A/Indonesia/5/2005 (H5N1))
[6] = molecular target: HA glycoprotein of A/Shenzhen/406H/2006 (H5N1, clade 2.3.4) (influenza A virus A/Shenzhen/406H/2006 (H5N1))
[7] = molecular target: HA glycoprotein of A/duck/Guangxi/1378/2004 (H5N1, clade 5) (influenza A virus A/duck/Guangxi/1378/2004 (H5N1))
[8] = molecular target: HA glycoprotein of A/Turkey/65596/2006 (H5N1, clade 2.2.1) (influenza A virus A/Turkey/65596/2006 (H5N1))
[9] = molecular target: HA glycoprotein of A/silky chicken/Hong Kong/SF189/2001 (H5N1, clade 3) (influenza A virus A/silky chicken/Hong Kong/SF189/2001 (H5N1))
[10] = molecular target: HA glycoprotein of A/blackbird/Hunan/1/2004 (H5N1, clade 6) (influenza A virus A/blackbird/Hunan/1/2004 (H5N1))
[11] = molecular target: HA glycoprotein of A/goose/Guiyang/337/2006 (H5N1, clade 4) (influenza A virus A/goose/Guiyang/337/2006 (H5N1))
[12] = molecular target: HA glycoprotein of A/chicken/Korea/es/2003 (H5N1, clade 2.5) (influenza A virus A/chicken/Korea/es/2003 (H5N1))
[13] = molecular target: HA glycoprotein of A/chicken/Guangxi/12/2004 (H5N1, clade 2.4) (influenza A virus A/chicken/Guangxi/12/2004 (H5N1))
[14] = molecular target: HA glycoprotein of A/Thailand/(KAN-1)/2004 (H5N1, clade 1) (influenza A virus A/Thailand/(KAN-1)/2004 (H5N1))
[15] = molecular target: HA glycoprotein of A/common magpie/Hong Kong/5052/2007 (H5N1, clade 2.3.2.1) (influenza A virus A/common magpie/Hong Kong/5052/2007 (H5N1))
[16] = molecular target: HA glycoprotein of A/chicken/Henan/16/2004 (H5N1, clade 8) (influenza A virus A/chicken/Henan/16/2004 (H5N1))

Row | Substance | IC50 of neutralisation of pseudovirus bearing this HA [1] [µg/mL] | IC50 of neutralisation of pseudovirus bearing this HA [2] [µg/mL] | IC50 of neutralisation of pseudovirus bearing this HA [3] [µg/mL] | IC50 of neutralisation of pseudovirus bearing this HA [4] [µg/mL] | IC50 of neutralisation of pseudovirus bearing this HA [5] [µg/mL] | IC50 of neutralisation of pseudovirus bearing this HA [6] [µg/mL] | IC50 of neutralisation of pseudovirus bearing this HA [7] [µg/mL] | IC50 of neutralisation of pseudovirus bearing this HA [8] [µg/mL] | IC50 of neutralisation of pseudovirus bearing this HA [9] [µg/mL] | IC50 of neutralisation of pseudovirus bearing this HA [10] [µg/mL] | IC50 of neutralisation of pseudovirus bearing this HA [11] [µg/mL] | IC50 of neutralisation of pseudovirus bearing this HA [12] [µg/mL] | IC50 of neutralisation of pseudovirus bearing this HA [13] [µg/mL] | IC50 of neutralisation of pseudovirus bearing this HA [14] [µg/mL] | IC50 of neutralisation of pseudovirus bearing this HA [15] [µg/mL] | IC50 of neutralisation of pseudovirus bearing this HA [16] [µg/mL]
1 | AVFluIgG03, full-length human IgG1 (antibody) | 0.03 | 0.018 | 0.069 | 0.008 | 4.75 | 0.002 | 0.009 | 1.86 | 0.069 | 0.004 |  |  |  |  |  | 
2 | 100F4, full-length human IgG1 (antibody) |  | 0.011 |  | 0.05 | 0.013 | 0.052 | 0.021 | 0.004 | 0.022 | 0.033 | 0.019 | 0.016 | 0.015 | 0.067 | 0.066 | 0.036
3 | 65C6, full-length human IgG1 (antibody) |  | 0.007 |  | 0.005 | 0.004 | 0.02 | 0.005 | 0.002 | 0.011 | 0.007 | 0.025 | 0.005 | 0.005 | 0.029 | 0.034 | 0.014

Reference: PMC4686829
